Results from paper PMC6546911 (Nature Communications, 2019).

Target: T1, Fen1, budding yeast, wild-type (budding yeast, UniProt P26793 1-382)
T1 construct: Fen1 (flap endonuclease), budding yeast; source: purified
T1 sequence (looked up): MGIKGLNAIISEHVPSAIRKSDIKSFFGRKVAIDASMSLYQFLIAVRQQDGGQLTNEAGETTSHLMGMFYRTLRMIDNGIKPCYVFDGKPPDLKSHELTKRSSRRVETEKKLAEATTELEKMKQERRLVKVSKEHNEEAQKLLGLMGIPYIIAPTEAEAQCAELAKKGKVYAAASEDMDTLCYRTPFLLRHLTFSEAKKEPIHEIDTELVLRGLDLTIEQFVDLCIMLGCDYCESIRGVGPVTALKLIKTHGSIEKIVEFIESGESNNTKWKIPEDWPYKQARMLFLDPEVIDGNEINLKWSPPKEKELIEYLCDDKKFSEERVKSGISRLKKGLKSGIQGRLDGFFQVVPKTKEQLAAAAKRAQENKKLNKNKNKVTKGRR
Assay: pull-down; purified wild-type or mutant Fen1 mixed with PCNA; Fen1 affinity-purified on anti-FLAG beads; co-isolated PCNA by immunoblot
Details: both partners purified

B1: Yeast PCNA (Pol30p) (natural protein, budding yeast, UniProt P15873 1-258, looked up)
chain: MLEAKFEEASLFKRIIDGFKDCVQLVNFQCKEDGIIAQAVDDSRVLLVSLEIGVEAFQEYRCDHPVTLGMDLTSLSKILRCGNNTDTLTLIADNTPDSIILLFEDTKKDRIAEYSLKLMDIDADFLKIEELQYDSTLSLPSSEFSKIVRDLSQLSDSINIMITKETIKFVADGDIGSGSVIIKPFVDMEHPETSIKLEMDQPVDLTFGAKYLLDIIKGSSLSDRVGIRLSSEAPALFQFDLKSGFLQFFLAPKFNDEE
notes: PCNA (Pol30p), budding yeast; source: E. coli BL21 (DE3), purified
B1: binds.
